According to patent US20190218277A1 (Chugai, published 2019):
Like-named read-outs stand apart in the source and are kept apart here.

T1: mouse FcγRIV (mouse, UniProt A0A0B4J1G0 21-203)
T1 construct: also called mFcγRIV; mouse FcγR4
T1 sequence: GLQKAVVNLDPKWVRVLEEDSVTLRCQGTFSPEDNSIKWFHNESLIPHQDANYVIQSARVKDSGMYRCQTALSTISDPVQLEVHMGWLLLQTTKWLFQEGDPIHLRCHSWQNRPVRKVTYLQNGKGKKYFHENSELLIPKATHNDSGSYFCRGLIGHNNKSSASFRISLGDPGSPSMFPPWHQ

T2: human FcγRIIIb (NA2) (human, UniProt O75015 17-200)
T2 construct: also called human FcγR3b allelic variant NA2
T2 chain: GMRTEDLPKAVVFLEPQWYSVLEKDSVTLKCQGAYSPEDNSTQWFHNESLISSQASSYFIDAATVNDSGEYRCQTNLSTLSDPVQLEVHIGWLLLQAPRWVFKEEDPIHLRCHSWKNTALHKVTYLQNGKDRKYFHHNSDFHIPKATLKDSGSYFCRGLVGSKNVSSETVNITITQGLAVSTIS

T3: mouse FcγRI (mouse, UniProt P26151 25-297)
T3 construct: also called mFcγRI; mouse FcγR1
T3 sequence: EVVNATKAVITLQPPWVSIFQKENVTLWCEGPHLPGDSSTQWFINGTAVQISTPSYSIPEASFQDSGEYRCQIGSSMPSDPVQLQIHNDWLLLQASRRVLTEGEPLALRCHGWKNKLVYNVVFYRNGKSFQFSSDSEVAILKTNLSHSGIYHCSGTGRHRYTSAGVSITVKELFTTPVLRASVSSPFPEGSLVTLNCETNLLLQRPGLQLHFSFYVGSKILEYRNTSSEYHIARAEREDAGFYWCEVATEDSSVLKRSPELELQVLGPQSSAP

T4: mouse FcγRIII (mouse, UniProt P08508 31-215)
T4 construct: also called mFcγRIII; mouse FcγR3
T4 chain: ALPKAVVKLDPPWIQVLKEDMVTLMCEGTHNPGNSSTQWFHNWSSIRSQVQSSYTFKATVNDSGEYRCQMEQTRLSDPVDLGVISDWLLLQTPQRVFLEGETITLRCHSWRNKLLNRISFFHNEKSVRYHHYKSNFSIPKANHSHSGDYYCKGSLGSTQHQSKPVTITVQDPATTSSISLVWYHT

T5: human FcγRIIb (human, UniProt P31994 43-217)
T5 construct: also called human FcγR2b
T5 sequence: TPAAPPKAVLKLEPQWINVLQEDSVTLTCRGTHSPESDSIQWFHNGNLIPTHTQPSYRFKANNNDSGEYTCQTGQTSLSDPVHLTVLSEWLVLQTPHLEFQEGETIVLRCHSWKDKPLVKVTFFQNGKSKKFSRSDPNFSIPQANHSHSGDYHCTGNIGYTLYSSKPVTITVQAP

T6: human FcγRIIIb (NA1) (human, UniProt O75015 17-200)
T6 construct: also called human FcγR3b allelic variant NA1
T6 chain: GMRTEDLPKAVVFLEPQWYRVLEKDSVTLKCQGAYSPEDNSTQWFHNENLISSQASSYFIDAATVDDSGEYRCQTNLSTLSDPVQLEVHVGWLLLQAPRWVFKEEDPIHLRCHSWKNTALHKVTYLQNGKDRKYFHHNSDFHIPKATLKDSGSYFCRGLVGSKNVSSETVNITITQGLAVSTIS

T7: mouse FcγRIIb (mouse, UniProt P08101 30-210)
T7 construct: also called mFcγRIIb; mouse FcγR2b
T7 sequence: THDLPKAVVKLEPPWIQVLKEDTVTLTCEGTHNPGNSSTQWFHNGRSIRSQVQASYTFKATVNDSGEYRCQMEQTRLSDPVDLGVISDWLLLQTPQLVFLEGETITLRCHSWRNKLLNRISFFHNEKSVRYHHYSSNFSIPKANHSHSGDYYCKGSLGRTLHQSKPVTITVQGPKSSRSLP


Experiments:
[1] = target: T8, Recombinant soluble E protein (0.8E-His) from DENV-3 (DENV-3, UniProt P27915 281-673)
T8 construct: also called DENV-3 E protein; DV3

[2] = target: T8, Recombinant soluble E protein …; remark: listed apart in the source
[3] = target: T9, Recombinant soluble E protein (0.8E-His) from DENV-1 (DENV-1, UniProt P27909 281-675)
T9 construct: also called DENV-1 E protein; DV1

[4] = target: T10, Recombinant soluble E protein (0.8E-His) from DENV-4 (DENV-4, UniProt P09866 280-674)
T10 construct: also called DENV-4 E protein; DV4

[5] = target: T11, Recombinant soluble E protein (0.8E-His) from DENV-2 (DENV-2, UniProt P14340 281-675)
T11 construct: also called DENV-2 E protein; DV2

[6] = target: T9, Recombinant soluble E protein …; remark: listed apart in the source
mouse FcγRIV = target: T1, mouse FcγRIV; test: SPR (Biacore T200, pH 7.4, 25 °C): His-tagged FcγR captured by anti-His antibody; antibody injected at 100 nM alone (Ab alone) or as 1:1 complex with trimeric CD154 (CD154 IC); binding level / capture level [D]
human FcγRIIIb (NA2) = target: T2, human FcγRIIIb (NA2); test: SPR (Biacore T200, pH 7.4, 25 °C): His-tagged FcγR captured by anti-His antibody; antibody injected at 100 nM alone (Ab alone) or as 1:1 complex with trimeric CD154 (CD154 IC); binding level / capture level [H]
mouse FcγRI = target: T3, mouse FcγRI; test: SPR (Biacore T200, pH 7.4, 25 °C): His-tagged FcγR captured by anti-His antibody; antibody injected at 100 nM alone (Ab alone) or as 1:1 complex with trimeric CD154 (CD154 IC); binding level / capture level [A]
human C1q (Calbiochem) = human C1q (Calbiochem) (human, UniProt P02745 23-245; P02746 28-253; P02747 29-245); test: ELISA: antibody coated on the plate at the concentration shown, human C1q added, detected with HRP anti-human C1q, OD 450 nm
human C1q (Calbiochem), sequence (P02745 23-245 limits assumed, chain 1 of 3): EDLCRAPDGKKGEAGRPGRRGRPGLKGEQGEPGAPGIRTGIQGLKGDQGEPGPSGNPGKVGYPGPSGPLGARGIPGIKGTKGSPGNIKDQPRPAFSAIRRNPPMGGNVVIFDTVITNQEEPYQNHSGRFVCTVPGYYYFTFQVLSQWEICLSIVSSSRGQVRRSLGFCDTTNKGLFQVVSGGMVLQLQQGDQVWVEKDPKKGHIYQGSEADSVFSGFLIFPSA
human C1q (Calbiochem), sequence (P02746 28-253 limits assumed, chain 2 of 3): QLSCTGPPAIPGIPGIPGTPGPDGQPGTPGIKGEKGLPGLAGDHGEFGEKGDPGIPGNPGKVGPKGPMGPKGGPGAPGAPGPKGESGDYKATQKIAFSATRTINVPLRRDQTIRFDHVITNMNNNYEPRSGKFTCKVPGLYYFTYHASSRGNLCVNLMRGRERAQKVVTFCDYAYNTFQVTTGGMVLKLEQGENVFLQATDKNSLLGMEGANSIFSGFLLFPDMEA
human C1q (Calbiochem), sequence (P02747 29-245 limits assumed, chain 3 of 3): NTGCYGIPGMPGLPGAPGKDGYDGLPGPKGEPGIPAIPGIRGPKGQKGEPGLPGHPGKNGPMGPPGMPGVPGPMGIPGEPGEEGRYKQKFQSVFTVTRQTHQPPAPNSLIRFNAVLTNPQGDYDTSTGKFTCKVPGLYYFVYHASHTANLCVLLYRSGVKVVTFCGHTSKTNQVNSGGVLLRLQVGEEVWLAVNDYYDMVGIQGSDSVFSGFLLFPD

mouse FcγRIII = target: T4, mouse FcγRIII; test: SPR (Biacore T200, pH 7.4, 25 °C): His-tagged FcγR captured by anti-His antibody; antibody injected at 100 nM alone (Ab alone) or as 1:1 complex with trimeric CD154 (CD154 IC); binding level / capture level [C]
human FcγRIIIa (158F) = target: T12, human FcγRIIIa (158F) (human, UniProt P08637 17-208); test: SPR (Biacore T200, pH 7.4, 25 °C): His-tagged FcγR captured by anti-His antibody; antibody injected at 100 nM alone (Ab alone) or as 1:1 complex with trimeric CD154 (CD154 IC); binding level / capture level [E]
T12 construct: also called human FcγR3a allelic variant 158F

human FcγRIa = target: T13, human FcγRIa (human, UniProt P12314 16-292); test: SPR (Biacore T200, pH 7.4, 25 °C): His-tagged FcγR captured by anti-His antibody; antibody injected at 100 nM alone (Ab alone) or as 1:1 complex with trimeric CD154 (CD154 IC); binding level / capture level [A]
T13 construct: also called human FcγR1a
T13 sequence (P12314 16-292 limits assumed): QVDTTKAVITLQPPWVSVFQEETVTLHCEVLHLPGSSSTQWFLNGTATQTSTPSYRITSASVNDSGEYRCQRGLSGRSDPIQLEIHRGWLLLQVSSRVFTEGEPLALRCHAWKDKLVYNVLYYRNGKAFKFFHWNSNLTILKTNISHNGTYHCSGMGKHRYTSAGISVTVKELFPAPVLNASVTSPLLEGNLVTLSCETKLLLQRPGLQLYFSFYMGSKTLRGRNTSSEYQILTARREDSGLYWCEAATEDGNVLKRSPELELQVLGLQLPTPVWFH

human FcγRIIIa (158V) = target: T14, human FcγRIIIa (158V) (human, UniProt P08637 17-208); test: SPR (Biacore T200, pH 7.4, 25 °C): His-tagged FcγR captured by anti-His antibody; antibody injected at 100 nM alone (Ab alone) or as 1:1 complex with trimeric CD154 (CD154 IC); binding level / capture level [F]
T14 construct: also called human FcγR3a allelic variant 158V

human FcγRIIb = target: T5, human FcγRIIb; test: SPR (Biacore T200, pH 7.4, 25 °C): His-tagged FcγR captured by anti-His antibody; antibody injected at 100 nM alone (Ab alone) or as 1:1 complex with trimeric CD154 (CD154 IC); binding level / capture level [D]
human FcγRIIIb (NA1) = target: T6, human FcγRIIIb (NA1); test: SPR (Biacore T200, pH 7.4, 25 °C): His-tagged FcγR captured by anti-His antibody; antibody injected at 100 nM alone (Ab alone) or as 1:1 complex with trimeric CD154 (CD154 IC); binding level / capture level [G]
mouse FcγRIIb = target: T7, mouse FcγRIIb; test: SPR (Biacore T200, pH 7.4, 25 °C): His-tagged FcγR captured by anti-His antibody; antibody injected at 100 nM alone (Ab alone) or as 1:1 complex with trimeric CD154 (CD154 IC); binding level / capture level [B]

Binder | Kd [1] [nM] | Kd [2] [nM] | Kd [3] [nM] | Kd [4] [nM] | Kd [5] [nM] | Kd [6] [nM] | binding result (mouse FcγRIV) | binding result (human FcγRIIIb (NA2)) | binding result (mouse FcγRI) | EC50 (read off the curve) (human C1q (Calbiochem)) [µg/mL] | binding result (mouse FcγRIII) | binding result (human FcγRIIIa (158F)) | binding result (human FcγRIa) | binding result (human FcγRIIIa (158V)) | binding result (human FcγRIIb) | binding result (human FcγRIIIb (NA1)) | binding result (mouse FcγRIIb)
DG_3CH1047-SG182/3CL658-SK1 (antibody, human IgG1, kappa, V domains shown, also called 3Cam) VH: QVQLVQSGPDVEKPGASVKVSCKASGYTFTSYYMHWVRQAPGQGLEWMGVINPRGGSRRSAQKFQGRITMTRDTSTSTVYMELSSLRSEDTAVYYCARGGEALFYDSYTTPFDGGSWWFDPWGQGSLVTVSS VL: DIQLTQSPSSLSASVGDRVTFTCQASQEIRKYLNWYQQKPGKAPKLLIYDASELKTGVPSRFSGSGSGTDFTFTISSLQPEDVATYYCQQFEDLPITFGQGTRLQIKR | 0.00501 | 0.00382 | 2.98 | 9.11 | 0.765 | 3.51 |  |  |  |  |  |  |  |  |  |  | 
Anti-CD154 antibody (SLAPH0336a/SLAPL0336a) with Fc variant LALA+EFT (SG1090) (antibody, human IgG1, kappa, L234A L235A) heavy: EVQLVESGGGSVKPGGSLKLSCAASGFTFSDHYMYWVRQTPEKRLEWVAIISGGGSYTSYPDSMKGRFTISRDNAKNILHLQMSSLKSEDTAMYYCTRESNGKPGFAYWGQGTLVTVSAASTKGPSVFPLAPSSKSTSGGTAALGCLVKDYFPEPVTVSWNSGALTSGVHTFPAVLQSSGLYSLSSVVTVPSSSLGTQTYICNVNHKPSNTKVDKRVEPKSCDKTHTCPPCPAPEAAGGPSVFLFPPKPKDTLMISRTPEVTCVVVDVEFEDPEVKFNWYVDGVEVHNAKTKPREEQYNSTYRVVSVLTVLHQDWLNGKEYKCKVTNKALPAPIEKTISKAKGQPREPQVYTLPPSREEMTKNQVSLTCLVKGFYPSDIAVEWESNGQPENNYKTTPPVLDSDGSFFLYSKLTVDKSRWQQGNVFSCSVMHEALHNHYTQKSLSLSP light: not shown |  |  |  |  |  |  | no binding (tested: 100 nM) | no binding (tested: 100 nM) | no binding (tested: 100 nM) | ~2 | binds | no binding (tested: 100 nM) | binds | binds | binds | no binding (tested: 100 nM) | 
EFT+AE (antibody, human IgG1, kappa, also called Anti-CD154 antibody (SLAPH0336a/SLAPL0336a) with Fc variant EFT+AE (SG1086); SG1086) heavy chain: EVQLVESGGGSVKPGGSLKLSCAASGFTFSDHYMYWVRQTPEKRLEWVAIISGGGSYTSYPDSMKGRFTISRDNAKNILHLQMSSLKSEDTAMYYCTRESNGKPGFAYWGQGTLVTVSAASTKGPSVFPLAPSSKSTSGGTAALGCLVKDYFPEPVTVSWNSGALTSGVHTFPAVLQSSGLYSLSSVVTVPSSSLGTQTYICNVNHKPSNTKVDKRVEPKSCDKTHTCPPCPAPELLAGPSVFLFPPKPKDTLMISRTPEVTCVVVDVEFEDPEVKFNWYVDGVEVHNAKTKPREEQYNSTYRVVSVLTVLHQDWLNGKEYKCKVTNKALPAPEEKTISKAKGQPREPQVYTLPPSREEMTKNQVSLTCLVKGFYPSDIAVEWESNGQPENNYKTTPPVLDSDGSFFLYSKLTVDKSRWQQGNVFSCSVMHEALHNHYTQKSLSLSP light chain: not shown |  |  |  |  |  |  | binds | binds | binds |  | binds | binds | binds | binds | binds |  | binds
